The results in this text go back to publication PMC13169712.

For assay [1], the target named is 38B7 human IgE mAb (human). Briefly: SPR; Carterra LSA; antibody as ligand, allergen or peptide as analyte; how the antibody was held for these pairs is not told.
The target of a further assay is 13D9 human IgE mAb. In words: ELISA. The following applies: chain shown with the change; mAb 10 µg/mL (highest point of the titration); parent: est. 3.5; read off a plot. For orientation: ELISA stands for enzyme-linked immunosorbent assay.
13D9 human IgE mAb, sequence (chain, as listed by the source, chain 1 of 2): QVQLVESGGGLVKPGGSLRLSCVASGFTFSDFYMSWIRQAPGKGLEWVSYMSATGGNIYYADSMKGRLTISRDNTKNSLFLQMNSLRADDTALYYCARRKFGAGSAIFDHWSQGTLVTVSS
13D9 human IgE mAb, sequence (chain, as listed by the source, chain 2 of 2): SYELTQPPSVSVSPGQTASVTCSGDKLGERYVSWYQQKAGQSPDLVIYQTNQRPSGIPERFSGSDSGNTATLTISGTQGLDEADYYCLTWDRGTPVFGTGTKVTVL
A further assay concerns the target 16A8 human IgE mAb. Briefly: ELISA. The following applies: chain shown with the change; mAb 10 µg/mL (highest point of the titration); parent: est. 3.4; read off a plot.
The target in a further assay is 1H9 human IgE mAb. In words: ELISA. Conditions: chain shown with the change; mAb 10 µg/mL (highest point of the titration); parent: est. 3.3; read off a plot.
1H9 human IgE mAb, sequence (chain, as listed by the source, chain 1 of 2): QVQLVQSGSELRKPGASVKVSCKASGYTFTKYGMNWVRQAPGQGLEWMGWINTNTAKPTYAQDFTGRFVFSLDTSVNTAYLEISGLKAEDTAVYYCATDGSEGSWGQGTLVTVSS
1H9 human IgE mAb, sequence (chain, as listed by the source, chain 2 of 2): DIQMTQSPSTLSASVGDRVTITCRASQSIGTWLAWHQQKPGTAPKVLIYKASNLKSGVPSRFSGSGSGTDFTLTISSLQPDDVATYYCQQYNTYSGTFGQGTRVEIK
A further assay concerns the target 8F3 human IgE mAb. In words: ELISA. Conditions: chain shown with the change; mAb 10 µg/mL (highest point of the titration); parent: est. 3.6; read off a plot.

Square brackets hold non-standard residues; d marks the D form. Ends that are not written are not given here. Hyp = O=C(O)[C@@H]1C[C@@H](O)CN1

38B7 human IgE mAb (human), sequence (heavy, as listed by the source, chain 1 of 2): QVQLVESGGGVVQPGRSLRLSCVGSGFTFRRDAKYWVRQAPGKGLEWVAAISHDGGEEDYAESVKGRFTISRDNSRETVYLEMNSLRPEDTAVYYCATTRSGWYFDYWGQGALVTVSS
38B7 human IgE mAb (human), sequence (light, as listed by the source, chain 2 of 2): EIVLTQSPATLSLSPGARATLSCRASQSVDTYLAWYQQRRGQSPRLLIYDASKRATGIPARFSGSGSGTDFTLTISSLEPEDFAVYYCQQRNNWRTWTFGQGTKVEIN
16A8 human IgE mAb, sequence (chain, as listed by the source, chain 1 of 2): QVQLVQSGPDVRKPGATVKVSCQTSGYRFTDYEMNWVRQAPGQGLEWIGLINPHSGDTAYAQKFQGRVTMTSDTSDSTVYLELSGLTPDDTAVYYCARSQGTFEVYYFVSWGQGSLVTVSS
16A8 human IgE mAb, sequence (chain, as listed by the source, chain 2 of 2): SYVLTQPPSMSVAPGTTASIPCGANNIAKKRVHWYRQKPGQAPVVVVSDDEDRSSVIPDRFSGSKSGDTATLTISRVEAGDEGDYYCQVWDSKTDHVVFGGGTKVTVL
8F3 human IgE mAb, sequence (chain, as listed by the source, chain 1 of 2): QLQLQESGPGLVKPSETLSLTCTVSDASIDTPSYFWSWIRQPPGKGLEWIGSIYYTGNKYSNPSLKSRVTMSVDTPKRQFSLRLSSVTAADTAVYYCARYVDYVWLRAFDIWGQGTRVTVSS
8F3 human IgE mAb, sequence (chain, as listed by the source, chain 2 of 2): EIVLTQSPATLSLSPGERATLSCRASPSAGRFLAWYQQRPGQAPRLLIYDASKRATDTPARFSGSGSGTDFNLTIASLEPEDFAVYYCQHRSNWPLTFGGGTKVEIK

For orientation: Kd means the free concentration of one partner at which half of the binding sites on the other are occupied at equilibrium, for simple one-to-one binding. Broadly, the koff is the rate constant with which the complex falls apart. Read a low koff as slow dissociation. A word on the kon: it is the second-order rate constant of association. In assay [1], EDSYERDPYS[Hyp]SQD [hydroxylated DPYSPS containing peptide (…^OHSQD)] returned a Kd of 0.02 µM, an off-rate constant (koff) of 0.00198 s⁻¹ and a kon of 101000 M⁻¹ s⁻¹.
For EDSYERDPYSPSQD [nonhydroxylated DPYSPS containing peptide (…)], in that order: 7.1 µM, 0.0887 s⁻¹ and 16900 M⁻¹ s⁻¹.

B1: Ara h 6c R90Q; Q91A (protein)
chain: SCERQVDRVNLKPCEQHIMQRIMGEQEQYDSYDIRSTRSSDQQQRCCDELNEMENTQGCMCEALQQIMENQCDRLQDQAMVQQFKRELMSLPQQCNFRAPQRCDLDVSGGRC
B1: the response with 13D9 human IgE mAb is 3.5 OD 450nm; with 16A8 human IgE mAb, 3.4 OD 450nm; with 1H9 human IgE mAb it was 1.6 OD 450nm; with 8F3 human IgE mAb it was 3.6 OD 450nm.

B2: Ara h 6c Q113R; R114E (protein)
chain: SCERQVDRVNLKPCEQHIMQRIMGEQEQYDSYDIRSTRSSDQQQRCCDELNEMENTQGCMCEALQQIMENQCDRLQDRQMVQQFKRELMSLPQQCNFRAPRECDLDVSGGRC
On to B2, for which the response in the assay with 13D9 human IgE mAb was 3.5 OD 450nm; with 16A8 human IgE mAb, 2.6 OD 450nm; in the assay with 1H9 human IgE mAb, 3.4 OD 450nm.

B3: Ara h 6c D19R; E27A; N82A (protein)
chain: SCERQVRRVNLKPCAQHIMQRIMGEQEQYDSYDIRSTRSSDQQQRCCDELNEMENTQGCMCEALQQIMEAQCDRLQDRQMVQQFKRELMSLPQQCNFRAPQRCDLDVSGGRC
Turning to B3, in the assay with 13D9 human IgE mAb, the response was found to be 1.6 OD 450nm.
